Data from patent US20200317802A1 (Merck KGaA, published 2020).
Numbering of substitutions follows the chain as printed.

Tests used:
[1] = biological target: T1, recombinant human ADAMTS5 (R&D Systems cat #2198-AD) (human, UniProt Q9UNA0 262-622, limits assumed); assay: binding ELISA, periplasmic extract on coated human ADAMTS5
T1 construct: bought protein
T1 sequence: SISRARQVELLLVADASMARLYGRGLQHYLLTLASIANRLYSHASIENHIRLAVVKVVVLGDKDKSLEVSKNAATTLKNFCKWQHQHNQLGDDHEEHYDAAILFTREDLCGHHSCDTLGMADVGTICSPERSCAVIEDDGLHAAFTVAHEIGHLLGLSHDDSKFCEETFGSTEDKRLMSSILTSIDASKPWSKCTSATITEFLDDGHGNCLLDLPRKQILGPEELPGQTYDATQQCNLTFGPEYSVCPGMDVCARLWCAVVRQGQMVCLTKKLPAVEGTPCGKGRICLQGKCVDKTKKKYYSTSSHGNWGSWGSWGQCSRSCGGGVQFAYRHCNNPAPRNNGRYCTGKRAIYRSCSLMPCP
Procedure: In a first step, periplasmic extracts were tested for binding to recombinant human ADAMTS5 by binding ELISA. In brief, recombinant human ADAMTS5 (R&D Systems, Minneapolis, US; cat #2198-AD) at a concentration of 1 μg/ml was coated on 384-well MaxiSorp plates (Nunc, Wiesbaden, Germany). Wells were blocked with a casein solution (1%). After addition of a 10-fold dilution of the periplasmic extracts, Nanobody binding was detected using a mouse anti-Flag-HRP conjugate (Sigma, St. Louis, US) and a subsequent enzymatic reaction in the presence of the substrate esTMB (3,3′,5,5′-tetramentylbenzidine) (SDT, Brussels, Belgium). Clones showing ELISA signals higher than the sum of the average signal of the irrelevant Nanobody controls and 3 times the standard deviation of the irrelevant Nanobody controls were considered to encode positive human ADAMTS5 binding Nanobodies.

[2] = biological target: T2, guinea pig recombinant ADAMTS5 (guinea pig); assay: SPR off-rate, Biacore T100, ADAMTS5 immobilised, experiment 1
T2 construct: in house, HEK293, His tag in the entry
T2 chain: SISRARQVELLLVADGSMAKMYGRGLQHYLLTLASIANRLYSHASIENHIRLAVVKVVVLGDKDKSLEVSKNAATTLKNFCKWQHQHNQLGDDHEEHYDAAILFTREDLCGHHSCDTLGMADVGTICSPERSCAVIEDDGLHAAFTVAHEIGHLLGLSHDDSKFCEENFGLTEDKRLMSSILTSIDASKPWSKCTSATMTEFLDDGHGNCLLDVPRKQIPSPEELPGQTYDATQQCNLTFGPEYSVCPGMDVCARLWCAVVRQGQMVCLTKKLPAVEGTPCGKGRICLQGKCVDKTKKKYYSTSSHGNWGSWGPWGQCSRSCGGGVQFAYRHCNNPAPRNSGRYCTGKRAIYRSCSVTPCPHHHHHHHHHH
Procedure: (§1) Species cross-reactivity was initially evaluated via SPR-based off-rate analysis on a Biacore T100 instrument. Nanobodies were tested for binding to human, cynomolgus monkey (“cyno”), guinea pig, mouse, and bovine ADAMTS5. To this end, recombinant ADAMTS5 was immobilized onto a CM5 chip via amine coupling using EDC and NHS. Purified Nanobodies were injected for 2 minutes at a concentration of 100 nM and allowed to dissociate for 15 min at a flow rate of 45 ul/min. Off-rate for each individual Nanobody was determined by fitting a 1:1 interaction model (Langmuir model) onto the individual dissociation curves using the BIA Evaluation software. As a reference, off-rates on human ADAMTS5 were determined in each experiment.

[3] = biological target: T3, cynomolgus monkey recombinant ADAMTS5 (cynomolgus monkey, UniProt Q9UNA0 262-622 (human entry), limits assumed); assay: as above
T3 construct: in house, HEK293, His tag in the entry; also called cyno ADAMTS5
T3 chain: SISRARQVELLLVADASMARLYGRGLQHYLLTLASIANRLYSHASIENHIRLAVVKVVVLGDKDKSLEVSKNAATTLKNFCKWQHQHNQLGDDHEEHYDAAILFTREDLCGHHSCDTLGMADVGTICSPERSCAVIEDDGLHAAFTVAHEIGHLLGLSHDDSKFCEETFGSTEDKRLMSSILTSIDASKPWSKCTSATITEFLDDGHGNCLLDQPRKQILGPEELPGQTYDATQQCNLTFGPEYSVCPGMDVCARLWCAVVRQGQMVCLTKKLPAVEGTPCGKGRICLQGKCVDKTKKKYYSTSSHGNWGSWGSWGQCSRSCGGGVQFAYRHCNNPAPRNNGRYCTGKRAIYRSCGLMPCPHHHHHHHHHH
Procedure: as §1

[4] = biological target: T1, recombinant human ADAMTS5 (R&D Systems …); assay: as above
Procedure: as §1

[5] = biological target: T4, mouse recombinant ADAMTS5 (mouse, UniProt Q9R001 262-622, limits assumed); assay: SPR off-rate, Biacore T100, ADAMTS5 immobilised, experiment 2
T4 construct: in house, HEK293, His tag in the entry
T4 sequence: T2 chain with G16S, K20R, G61T, K65T, L171T, M199I, V214L, P220L, S221G, I286V
Procedure: as §1

[6] = biological target: T1, recombinant human ADAMTS5 (R&D Systems …); assay: as above
Procedure: as §1

[7] = biological target: T1, recombinant human ADAMTS5 (R&D Systems …); assay: cell-based or functional assay
[8] = biological target: T1, recombinant human ADAMTS5 (R&D Systems …); assay: SPR off-rate, Biacore T100, ADAMTS5 immobilised, experiment 3
Procedure: as §1

[9] = biological target: T2, guinea pig recombinant ADAMTS5; assay: cell-based or functional assay
[10] = biological target: T3, cynomolgus monkey recombinant ADAMTS5; assay: cell-based or functional assay
[11] = biological target: T1, recombinant human ADAMTS5 (R&D Systems …); assay: cell-based or functional assay; remark: listed apart in the source
[12] = biological target: T1, recombinant human ADAMTS5 (R&D Systems …); assay: cell-based or functional assay; remark: listed apart in the source
[13] = biological target: T1, recombinant human ADAMTS5 (R&D Systems …); assay: cell-based or functional assay; remark: listed apart in the source
[14] = biological target: T1, recombinant human ADAMTS5 (R&D Systems …); assay: cell-based or functional assay; remark: listed apart in the source

B1: Nanobody 3D01 (VHH)
VHH: EVQLVESGGGLVQAGGSLRLSCAPSGFTFSPYYMGWFRQAPGKERDFVAAISRSRGTTYYLDSTEGRFTISRDNANDTVYLQMNSLNPEDTAVYYCAAGRSPGDPSRTYLYDYWGQGTLVTVSS
notes: tagged as tested (anti-Flag detection, IMAC); also called 03D01
binding ELISA (OD 450 nm) [1]: 2.57 OD 450 nm
koff [2]: 0.00027 s⁻¹
koff [3]: 0.0002 s⁻¹
koff [4]: 0.00023 s⁻¹
koff [5]: 0.00064 s⁻¹
koff [6]: 0.00032 s⁻¹
FRET assay % inh, periplasmic extract [7]: 111%
FRET assay vi (U/min), periplasmic extract [7]: -2 U/min
koff [8]: 0.00046 s⁻¹
AlphaLISA potency IC50, Guinea pig [9]: 0.35 nM
AlphaLISA potency IC50, Cyno [10]: 0.22 nM
AlphaLISA potency IC50, Human [11]: 0.39 nM
Human AlphaLISA % inhibition [12]: 96%
Human AlphaLISA IC50 [12]: 0.39 nM

B2: Nanobody 9D03 (VHH)
VHH: EVQLVESGGGLVQSGGSLRLSCAASGSAVSVNAMAWYRQAPGKQRDFVAGISRSAGRTYYTDSVKDRFTIARDSAKNTVYLQMNRLKPEDTAVYYCAADLDPNRIFSRDEAAYWGQGTLVTVSS
notes: tagged as tested (anti-Flag detection, IMAC); also called 09D03; 9D3
koff [2]: 0.001 s⁻¹
koff [3]: 0.00092 s⁻¹
koff [4]: 0.00098 s⁻¹
koff [5]: 0.0037 s⁻¹
koff [6]: 0.0012 s⁻¹
FRET assay % inh, periplasmic extract [7]: 110%
FRET assay vi (U/min), periplasmic extract [7]: -2 U/min
koff [8]: 0.0014 s⁻¹
AlphaLISA potency IC50, Guinea pig [9]: 0.13 nM
AlphaLISA potency IC50, Cyno [10]: 0.12 nM
AlphaLISA potency IC50, Human [11]: 0.11 nM
AlphaLISA IC50, - HSA [13]: 0.11 nM
Human AlphaLISA % inhibition [12]: 100%
Human AlphaLISA IC50 [12]: 0.11 nM

B3: Nanobody 2D07 (VHH)
VHH: EVQLVESGGGLVQAGGSLRLSCSFSGPGRTFARYAMGWFRQAPGKNRDFITGISGSGDSTYYVYPMKDRFTISRDNAKNMVYLQMNALKPEDTAVYYCAADREINRIANDKELDFWGQGTLVTVSS
notes: tagged as tested (anti-Flag detection, IMAC); also called 02D07; 2D7
binding ELISA (OD 450 nm) [1]: 1.55 OD 450 nm
koff [2]: 0.0011 s⁻¹
koff [3]: 0.00098 s⁻¹
koff [4]: 0.0011 s⁻¹
koff [5]: 0.0018 s⁻¹
koff [6]: 0.00094 s⁻¹
FRET assay % inh, periplasmic extract [7]: 104%
FRET assay vi (U/min), periplasmic extract [7]: -1 U/min
koff [8]: 0.001 s⁻¹
AlphaLISA potency IC50, Guinea pig [9]: 0.36 nM
AlphaLISA potency IC50, Cyno [10]: 0.15 nM
AlphaLISA potency IC50, Human [11]: 0.19 nM
AlphaLISA IC50, - HSA [13]: 0.19 nM
Human AlphaLISA % inhibition [12]: 100%
Human AlphaLISA IC50 [12]: 0.19 nM

B4: Nanobody 11B06 (VHH)
VHH: EVQLVESGGGLVQAGGSLRLSCAASGLTFRRNAMGWFRQAPGKERELLAGINWSGGTTYYVDSVKGRFTISRDNAKNTVDLQMISPKPEDTAVYYCAADGDIGTLVNDENPRYWGQGTLVTVSS
notes: tagged as tested (anti-Flag detection, IMAC)
koff [2]: 0.00017 s⁻¹
koff [3]: 0.00014 s⁻¹
koff [4]: 0.00017 s⁻¹
koff [5]: 0.00053 s⁻¹
koff [6]: 0.00027 s⁻¹
FRET assay % inh, periplasmic extract [7]: 106%
FRET assay vi (U/min), periplasmic extract [7]: -1 U/min
koff [8]: 0.00038 s⁻¹
AlphaLISA potency IC50, Guinea pig [9]: 0.35 nM
AlphaLISA potency IC50, Cyno [10]: 0.12 nM
AlphaLISA potency IC50, Human [11]: 0.1 nM
Human AlphaLISA % inhibition [12]: 100%
Human AlphaLISA IC50 [12]: 0.1 nM

B5: Nanobody 3B02 (VHH)
VHH: EVQLVESGGGFVQAGGSLRLSCVASRRTISSGTMGWFRQAPGKEREFVAAIRWSSGMPYYLDSVMDRFTISRDNAKNTVSLQMNSLQPEDTAVYYCAADRSAFRDPSFDVNYEYWGRGTLVTVSS
notes: tagged as tested (anti-Flag detection, IMAC); also called 03B02; 3B2
binding ELISA (OD 450 nm) [1]: 2.57 OD 450 nm
koff [2]: 0.001 s⁻¹
koff [3]: 0.00074 s⁻¹
koff [4]: 0.00073 s⁻¹
koff [5]: 0.002 s⁻¹
koff [6]: 0.00085 s⁻¹
FRET assay % inh, periplasmic extract [7]: 105%
FRET assay vi (U/min), periplasmic extract [7]: -1 U/min
koff [8]: 0.0012 s⁻¹
AlphaLISA potency IC50, Guinea pig [9]: 0.46 nM
AlphaLISA potency IC50, Cyno [10]: 0.19 nM
AlphaLISA potency IC50, Human [11]: 0.3 nM
AlphaLISA IC50, - HSA [13]: 0.3 nM
Human AlphaLISA % inhibition [12]: 100%
Human AlphaLISA IC50 [12]: 0.3 nM

B6: monovalent Nanobody 2F3^SO (2F3*) (VHH)
VHH: DVQLVESGGGVVQPGGSLRLSCAASGRTVSSYAMGWFRQAPGKEREFVAGISRSAERTYYVDSLKGRFTISRDNSKNTVYLQMNSLRPEDTALYYCAADLDPNRIFSREEYAYWGQGTLVTVSS
AlphaLISA IC50, Exp 1 [14]: 0.2 nM
AlphaLISA IC50, Exp 2 [14]: 0.27 nM
AlphaLISA IC50, Exp 3 [14]: 0.19 nM
AlphaLISA IC50, Exp 4 [14]: 0.44 nM
